Target: T1, SV40 large T-antigen (SV40, UniProt P03070 87-708)
T1 construct: Control partner in the yeast-two-hybrid assay; fusion construct not described
Test: targeted yeast-two-hybrid, negative control

T1 sequence (P03070 87-708 limits assumed): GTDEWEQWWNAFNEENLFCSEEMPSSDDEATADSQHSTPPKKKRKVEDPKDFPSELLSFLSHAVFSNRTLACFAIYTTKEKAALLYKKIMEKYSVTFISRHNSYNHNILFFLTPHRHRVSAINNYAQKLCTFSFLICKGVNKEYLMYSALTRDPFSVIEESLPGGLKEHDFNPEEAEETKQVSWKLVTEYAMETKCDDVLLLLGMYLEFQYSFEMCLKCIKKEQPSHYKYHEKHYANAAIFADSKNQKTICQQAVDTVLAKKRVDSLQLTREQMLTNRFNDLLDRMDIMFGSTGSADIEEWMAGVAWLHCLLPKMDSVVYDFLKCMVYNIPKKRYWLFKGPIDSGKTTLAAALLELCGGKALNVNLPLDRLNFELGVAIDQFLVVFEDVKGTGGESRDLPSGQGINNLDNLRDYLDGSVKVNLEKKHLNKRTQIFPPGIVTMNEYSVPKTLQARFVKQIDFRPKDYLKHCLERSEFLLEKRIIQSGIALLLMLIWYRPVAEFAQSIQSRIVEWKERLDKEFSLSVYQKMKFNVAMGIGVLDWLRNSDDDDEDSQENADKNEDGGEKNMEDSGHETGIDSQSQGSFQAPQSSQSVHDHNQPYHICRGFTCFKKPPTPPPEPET

B1: human Lamin C (other)
chain: SEEVVSREVSGIKAAYEAELGDARKTLDSVAKERARLQLELSKVREEFKELKARNTKKEGDLIAAQARLKDLEALLNSKEAALSTALSEKRTLEGELHDLRGQVAKLEAALGEAKKQLQDEMLRRVDAENRLQTMKEELDFQKNIYSEELRETKRRHETRLVEID
notes: Negative-control partner in the yeast-two-hybrid assay; fusion construct not described
B1: no binding.

Reference: patent US20060223099A1 (BAYLOR COLLEGE OF MEDICINE, published 2006)
